Measurements: US20240150433A1, “ERT2 MUTANTS AND USES THEREOF” (Senti Biosciences, Inc., priority 2021, published 2024)

Experiments:
[1] = following a typical clinical dose of tamoxifen; cited from earlier work
U87MG:1066 cells = assay: ERT2 mutant validation in U87MG with mCherry reporter; type: cell-based; conditions: validation screen versus wild-type ERT2
Protocol: About 16 hours before transduction 100k U87MG:1066 cells were seeded into 16 wells in 12 well plate format. During transduction, cells in each well were transduced with 100k pg of virus of ERT2 variant constructs. After transduction, cells were split in to 50k cells per well in a 24 well plate format, and treated with drug-free media or a range of endoxifen or 4-OHT drug conditions. About two days after treatment of cells with endoxifen or 4-OHT, cells were collected and mCherry reporter expression was quantified by flow cytometry.
Screening of the ERT2 mutant library identified a subset of ERT2 variants that were sensitive to endoxifen at 1 nM. Among this subset, 15 variants (Table 19) were validated in U87MG cells for their ability to activate an mCherry reporter (SB01066; FIG. 14B) at a range of concentrations of 0 pM, 10 pM, 50 pM, 100 pM, and 1 nM of endoxifen (FIG. 15A) and 4-OHT (FIG. 15B). Expression of mCherry was quantified about 24 hours after treatment with endoxifen or 4-OHT.
Select ERT2 variants (Table 20) from the previous screens were further tested for sensitivity to endoxifen and 4-OHT, compared to wild-type ERT2. […] Fold activation was calculated by gMFI mCherry levels of each test condition divided by gMFI mCherry levels of U87MG cells transduced with the reporter (SB01066).

NK cells = assay: Validation of ERT2 mutants with mCherry reporter in NK cells; type: cell-based; conditions: primary NK cells, mCherry by flow cytometry
Protocol: After 10 days of feeder cell activation, NK cells were co-transduced with ERT2 mutant virus and reporter SB01066 virus (Experimental Set-up 1). On Day 2 after transduction, transduced NK cells were treated with endoxifen or 4-OHT at a range of concentrations of 0 nM, 0.01 nM, 0.1 nM, 1 nM, and 10 nM. On Day 4, cells were checked for mCherry expression by flow cytometry.

| Molecule | average peak plasma concentration [1] | 4-OHT concentration at which mCherry expression is activated (U87MG:1066 cells) | endoxifen concentration at which mCherry expression is activated (U87MG:1066 cells) | 4-OHT concentration at which variant was sensitive (NK cells) | endoxifen concentration at which variant was sensitive (NK cells) |
| --- | --- | --- | --- | --- | --- |
| CC/C(=C(\c1ccccc1)c1ccc(OCCN(C)C)cc1)c1ccccc1 [tamoxifen] | approximately 40 ng/mL | – | – | – | – |
| wild-type ERT2: ER-LBD with G400V/M543A/L544A/V595A (SEQ ID NO: 3), benchmark construct ZF10-1_p65_ERT2 wild-type (protein) SAGDMRAANLWPSPLMIKRSKKNSLALSLTADQMVSALLDAEPPILYSEYDPTRPFSEASMMGLLTNLADRELVHMINWAKRVPGFVDLTLHDQVHLLECAWLEILMIGLVWRSMEHPVKLLFAPNLLLDRNQGKCVEGMVEIFDMLLATSSRFRMMNLQGEEFVCLKSIILLNSGVYTFLSSTLKSLEEKDHIHRVLDKITDTLIHLMAKAGLTLQQQHQRLAQLLLILSHIRHMSNKGMEHLYSMKCKNVVPLYDLLLEAADAHRLHAPTSRGGASVEETDQSHLATAGSTSSHSLQKYYITGEAEGFPATA | – | about 25 nM | about 25 nM | – | – |
| SB06142: ZF10-1_p65_ERT2 variant L354I/L391V/N413D/M421L/S463P/M517A/H524L (protein) SAGDMRAANLWPSPLMIKRSKKNSLALSLTADQMVSALLDAEPPILYSEYDPTRPFSEASMMGLLTNLADREIVHMINWAKRVPGFVDLTLHDQVHLLECAWLEILMIGVVWRSMEHPVKLLFAPNLLLDRDQGKCVEGLVEIFDMLLATSSRFRMMNLQGEEFVCLKSIILLNSGVYTFLPSTLKSLEEKDHIHRVLDKITDTLIHLMAKAGLTLQQQHQRLAQLLLILSHIRHASNKGMELLYSMKCKNVVPLYDLLLEAADAHRLHAPTSRGGASVEETDQSHLATAGSTSSHSLQKYYITGEAEGFPATA | – | – | – | 0.1 nM | 0.1 nM |
| SB06136: ZF10-1_p65_ERT2 variant L384M/L391V/N413D/M421L/S463P/H524L (protein) SAGDMRAANLWPSPLMIKRSKKNSLALSLTADQMVSALLDAEPPILYSEYDPTRPFSEASMMGLLTNLADRELVHMINWAKRVPGFVDLTLHDQVHLLECAWMEILMIGVVWRSMEHPVKLLFAPNLLLDRDQGKCVEGLVEIFDMLLATSSRFRMMNLQGEEFVCLKSIILLNSGVYTFLPSTLKSLEEKDHIHRVLDKITDTLIHLMAKAGLTLQQQHQRLAQLLLILSHIRHMSNKGMELLYSMKCKNVVPLYDLLLEAADAHRLHAPTSRGGASVEETDQSHLATAGSTSSHSLQKYYITGEAEGFPATA | – | – | – | 0.1 nM | 0.1 nM |
| SB06145: ZF10-1_p65_ERT2 variant L409V/N413D/Q414E/M421L/S463P/H524L (protein) SAGDMRAANLWPSPLMIKRSKKNSLALSLTADQMVSALLDAEPPILYSEYDPTRPFSEASMMGLLTNLADRELVHMINWAKRVPGFVDLTLHDQVHLLECAWLEILMIGLVWRSMEHPVKLLFAPNLVLDRDEGKCVEGLVEIFDMLLATSSRFRMMNLQGEEFVCLKSIILLNSGVYTFLPSTLKSLEEKDHIHRVLDKITDTLIHLMAKAGLTLQQQHQRLAQLLLILSHIRHMSNKGMELLYSMKCKNVVPLYDLLLEAADAHRLHAPTSRGGASVEETDQSHLATAGSTSSHSLQKYYITGEAEGFPATA | – | – | – | 0.1 nM | 0.1 nM |
